According to paper PMC9951308:
Starred links: 1 amine or outer side, 2 acyl side, 3 side chain; linkers in the order of their positions; H or OH if unused. Positions of bridges follow the written chain, without caps; N, C: chain ends. Residues, ends and D or L forms follow the SMILES beside them. TBMB = c1c(C[*:1])cc(C[*:3])cc1C[*:2]; mXylylene = c1cc(C[*:1])cc(C[*:2])c1

Test: circular dichroism
Settings: PBS 10 mM; pH 7.4; 25 °C; 10 uM
Ac-RIARLEEKYK-NH2 showed a helicity of 17%. Molecule Ac-QVARQLAEIY-NH2 has a helicity of 8%. Work on CC[C@H](C)[C@H](NC(=O)[C@H](CCCNC(=N)N)NC(C)=O)C(=O)N[C@@H](C)C(=O)N[C@@H](CCCNC(=N)N)C(=O)N[C@@H](CC(C)C)C(=O)N[C@@H](CCC(=O)O)C(=O)N[C@@H](CCC(=O)O)C(=O)N[C@H]1CSCc2cc3cc(c2)CSC[C@H](NC(=O)[C@H](CCCCN)NC(=O)[C@H](Cc2ccc(O)cc2)NC1=O)C(=O)NCC(=O)N[C@H](C(N)=O)CSC3 (Ac-RIARLEECYKCGC-NH2; linker 8-11-13 via TBMB) yielded a helicity of 48%. For CC(=O)N[C@@H](C)C(=O)N[C@@H](C)C(=O)N[C@@H](C)C(=O)N[C@@H](C)C(=O)N[C@@H](CCCCN)C(=O)N[C@@H](Cc1c[nH]c2ccccc12)C(=O)N[C@H]1CSCc2cccc(c2)CSC[C@@H](C(N)=O)NC(=O)CNC(=O)[C@H](C)NC(=O)[C@H](C)NC(=O)[C@H](C)NC1=O (Ac-AAAAKWCAAAGC-NH2; linker 7-12 via mXylylene), the helicity was 34%. For Ac-WAAAKAAAAKALAALGY-NH2, the helicity was 45%. Ac-WAAAKAAAAKALAAIGV-NH2 gave a helicity of 37%. In the case of CC[C@H](C)[C@@H]1NC(=O)[C@@H](NC(=O)[C@H](C)NC(=O)[C@H](CC(C)C)NC(=O)[C@H](CCC(N)=O)NC(=O)[C@H](CCCNC(=N)N)NC(=O)[C@H](C)NC(=O)[C@@H](NC(=O)[C@H](CCC(N)=O)NC(C)=O)C(C)C)CSCc2cc3cc(c2)CSC[C@H](NC(=O)[C@H](Cc2ccc(O)cc2)NC1=O)C(=O)NCC(=O)N[C@H](C(N)=O)CSC3 (Ac-QVARQLACIYCGC-NH2; linker 8-11-13 via TBMB), the helicity is reported as 38%. Molecule CC(=O)N[C@@H](C)C(=O)N[C@@H](C)C(=O)N[C@@H](C)C(=O)N[C@@H](C)C(=O)N[C@@H](CCCCN)C(=O)N[C@@H](C)C(=O)N[C@@H](C)C(=O)N[C@@H](C)C(=O)N[C@@H](C)C(=O)N[C@@H](CCCCN)C(=O)N[C@@H](Cc1c[nH]c2ccccc12)C(=O)N[C@H]1CSCc2cc3cc(c2)CSC[C@H](NC(=O)[C@H](C)NC(=O)[C@H](C)NC1=O)C(=O)NCC(=O)N[C@H](C(N)=O)CSC3 (Ac-AAAAKAAAAKWCAACGC-NH2; linker 12-15-17 via TBMB) has a helicity of 65%. Ac-WAAAKAAAAKALAALGI-NH2 showed a helicity of 52%. For Ac-WAAAKAAAAKALAALGW-NH2, the helicity was 44%. For Ac-WAAAKAAAAKALAALGF-NH2, the helicity was 38%. CC(=O)N[C@@H](C)C(=O)N[C@@H](C)C(=O)N[C@@H](C)C(=O)N[C@@H](C)C(=O)N[C@@H](CCCCN)C(=O)N[C@@H](Cc1c[nH]c2ccccc12)C(=O)N[C@H]1CSCc2cccc(c2)CSC[C@@H](C(=O)NCC(=O)N[C@@H](C)C(N)=O)NC(=O)[C@H](C)NC(=O)[C@H](C)NC1=O (Ac-AAAAKWCAACGA-NH2; linker 7-10 via mXylylene) gave a helicity of 33%. For CC(=O)N[C@@H](C)C(=O)N[C@@H](C)C(=O)N[C@@H](C)C(=O)N[C@@H](C)C(=O)N[C@@H](CCCCN)C(=O)N[C@@H](Cc1c[nH]c2ccccc12)C(=O)N[C@H]1CSCc2cc3cc(c2)CSC[C@H](NC(=O)[C@H](C)NC(=O)[C@H](C)NC1=O)C(=O)NCC(=O)N[C@H](C(N)=O)CSC3 (Ac-AAAAKWCAACGC-NH2; linker 7-10-12 via TBMB), the helicity was 59%. In the case of Ac-WAAAKAAAAKALAALGL-NH2, the helicity is reported as 54%. With Ac-AAAAKAAAAKAW-NH2 the helicity was 17%. For Ac-AAAAKAAAAKAAAAKAW-NH2, the helicity was 48%. In the case of CC(=O)N[C@@H](C)C(=O)N[C@@H](C)C(=O)N[C@@H](C)C(=O)N[C@@H](C)C(=O)N[C@@H](CCCCN)C(=O)N[C@@H](C)C(=O)N[C@@H](C)C(=O)N[C@@H](C)C(=O)N[C@@H](C)C(=O)N[C@@H](CCCCN)C(=O)N[C@@H](Cc1c[nH]c2ccccc12)C(=O)N[C@H]1CSCc2cc3cc(c2)CSC[C@H](NC(=O)[C@H](C)NC(=O)[C@H](C)NC1=O)C(=O)N[C@@H](C)C(=O)N[C@H](C(N)=O)CSC3 (Ac-AAAAKAAAAKWCAACAC-NH2; linker 12-15-17 via TBMB), the helicity is reported as 33%. Ac-WAAAKAAAAKALAALGV-NH2 gave a helicity of 44%.
